Measured values: patent US20100209435 (published 2010)
Substitutions are numbered along the chain they refer to.

B1: 2D8 (antibody, V domains shown)
VH: EVQLVQSGGGLVHPGGSLRLSCAGSGFTFSSYGMHWVRQAPGKGLEWVSGIGTGGGTYYADSVKGRFTISRDNVKNSLYLQMNSLRAEDMAVYYCARKNWGWFDYWGQGTLVTVSS
VL: EIVLTQSPATLSLSPGERATLSCRASQSISSYLAWYQQKPGQAPRLLIYDASNRATGIPARFSGSGSGTDFTLTISSLEPEDFAVYYCQQRSKWPPYTFGQGTKLEIKR
B2: 22B3 (antibody, V domains shown)
VH: B1 VH with A23E, Y32N, A40T, G54A, N76K, V92I, A96V, Y105P, T110A
VL: B1 VL with I29V, S30N, Y36F, V85I, K93N, Y97F
B3: 16E1 (antibody, V domains shown)
VH: EVQLVQSGGGLVHPGGSLRLSCAGSGFTFSGHALHWVRQAPGKGLEWVSGIGTHGGTYYADSVKGRFTISRDNAKNSLFLQMNSLSAEDMAVYYCTRRNWGQFDYWGQGTLVTVSS
VL: B1 VL with I29V, K93N
B4: 9H7 (antibody, V domains shown)
VH: B1 VH with A23E, Y32N, A40T, G54A, N76K, V92I, A96V, N99D, Y105P, T110A
VL: B1 VL
B5: 18B2 (antibody, V domains shown)
VH: EVQLVQSGGGLVHPGGSLRLSCVGSRFTFSAYPMHWVRQAPGKGLEWVSGIGSGGGTNYADSVKGRFTISRDTAKNSLYLQMNSLRAEDMAVYYCARGRNSFDYWGQGTLVTVSS
VL: DIQMTQSPSSLSASVGDRVTITCRASQGISTWLAWYQQKPEKAPKSLIYAASSLQSGVPSRFSGSGSGTDFTLTISSLQPEDFATYYCQQYNSYPPTFGQGTKVEIKR
B6: 2E11 (antibody, V domains shown)
VH: EVQLVQSGGDLVHPGGSLRLSCVGSGFTFSHYPLHWVRQAPGKGLEWISGIHTGGGTYYTDSVKGRFTISSDNAKNSLYLQMNTLRAEDMAVYYCARGRNSFDYWGQGTLVIVSS
VL: B5 VL with T31S, P80S, K103R, V104L

Molecular target: T1, CHO hOPGL 140 (human, UniProt O14788)
T1 chain: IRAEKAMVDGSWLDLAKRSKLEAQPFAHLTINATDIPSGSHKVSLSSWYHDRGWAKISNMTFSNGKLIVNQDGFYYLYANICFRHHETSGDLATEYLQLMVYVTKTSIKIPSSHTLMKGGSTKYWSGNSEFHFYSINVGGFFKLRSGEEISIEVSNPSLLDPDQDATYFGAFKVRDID
Assay: SPR

Q: With B1 as the binder, how does the Kd read?
A: Its Kd is 0.092 nM.

Q: How did the Kd turn out when B2 was run?
A: Its Kd is 0.0337 nM.

Q: For B3, which Kd is on record?
A: The Kd was 0.0633 nM.

Q: With B4 as the binder, how does the Kd read?
A: Its Kd is 0.193 nM.

Q: Which Kd does the source give for B5 here?
A: The Kd was 0.211 nM.

Q: With B6 as the binder, how does the Kd read?
A: Its Kd is 0.292 nM.

Molecular target: T2, E. coli mOPGL 158 (mouse, UniProt O35235)
T2 chain: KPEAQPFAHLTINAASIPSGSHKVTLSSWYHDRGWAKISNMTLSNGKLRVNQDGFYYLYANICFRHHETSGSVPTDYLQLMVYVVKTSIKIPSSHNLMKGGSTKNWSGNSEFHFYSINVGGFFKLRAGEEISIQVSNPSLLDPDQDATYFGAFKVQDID
Assay: SPR

Q: Does B2 bind?
A: Result: no binding

Q: Does B3 bind?
A: Result: no binding

Q: Does B4 bind?
A: Result: no binding

Q: Does B6 bind?
A: Result: no binding

Molecular target: T3, FLAG-murine OPGL[158-316]/DE (mouse, UniProt O35235)
T3 chain: T2 chain with S72D, V73L, P74A, D76E
Assay: ELISA

Q: Does B5 bind?
A: Result: no binding

Q: Does B6 bind?
A: Result: no binding

Molecular target: T2, E. coli mOPGL 158
Assay: ELISA

Q: Does B1 bind?
A: Result: no binding

Q: Does B5 bind?
A: Result: no binding
